From patent US7786071B2 (priority 2003, dated 2010)
Residue numbers refer to the chain shown, from its start. In names and notes the source's numbering stands.

B1: G2D6: second-round directly evolved PON1 variant, thioredoxin-fused; SEQ ID NO: 27 (DNA), 59 (protein) (protein)
chain: MAKLTALTLLGLGLALFDRQKSSFQTRFNVHREVTPVELPNCNLVKGIDNGSEDLEILPNGLAFISSGLKYPGIMSFDPDKSGKILLMDLNEEDPVVLELGITGSTFDLSSFNPHGISTFTDEDNTVYLLVVNHPDSSSTVEVFKFQEKERSLLHLKTIRHKLLPSVNDIVAVGPESFYATNDHYFADPYLKSWEMHLGLAWSFVTYYSPNDVRVVAEGFDFANGINISPDGKYVYIAELLAHKIHVYEKHANWTLTPLKSLDFNTLVDNISVDPVTGDLWVGCHPNGMRIFYYDPENPPGSEVLRIQDILSKEPKVTVVYAENGTVLQGSTVAAVYKGKLLIGTVFHKALYCDL
modifications: thioredoxin fusion; In vitro evolved PON variant G2D6
B2: G2E6: second-round directly evolved PON1 variant whose 3D structure was solved; SEQ ID NO: 28 (DNA), 60 (protein); 'wt' of Table 12 (protein)
chain: MAKLTALTLLGMGLALFDRQKSSFQTRFNVHREVTPVELPNCNLVKGIDNGSEDLEILPNGLAFISSGLKYPGIMSFDPDKSGKILLMDLNEKEPAVSELEIIGNTLDISSFNPHGISTFIDDDNTVYLLVVNHPGSSSTVEVFKFQEEEKSLLHLKTIRHKLLPSVNDIVAVGPEHFYATNDHYFIDPYLKSWEMHLGLAWSFVTYYSPNDVRVVAEGFDFANGINISPDGKYVYIAELLAHKIHVYEKHANWTLTPLRVLSFDTLVDNISVDPVTGDLWVGCHPNGMRIFFYDAENPPGSEVLRIQDILSEEPKVTVVYAENGTVLQGSTVAAVYKGKLLIGTVFHKALYCDL
modifications: In vitro evolved PON variant G2E6
B3: G1C4: first-round directly evolved PON1 variant, thioredoxin-fused; SEQ ID NO: 26 (DNA), 58 (protein) (protein)
chain: MAKLLALTLVGLGLALFDGQKSSFQTRFNVHREVTPVELPNCNLVKGIETGAEDLEILPNGLAFISSGLKYPGIMSFDPDKSGKILLMDLNEEDPVVLELGITGSTFDLSSFNPHGISTFTDEDNTVYLLVVNHPDSSSTVEVFKFQEKEKSLLHLKTIRHKLLPSVNDIVAVGPEHFYATNDHYFIDPYLKSWEMHLGLAWSFVTYYSPNDVRVVAEGFDFANGINISPDGKYVYIAELLAHKIHVYEKHANWTLTPLKSLDFNTLVDNISVDPVTGDLWVGCHPNGMRIFYYDPKNPPASEVLRIQDILSEDPKITVVYAENGTVLQGTTVASVYKGKLLIGTVFHKALYCDL
modifications: thioredoxin-fused; In vitro evolved PON variant G1C4
B4: G3C9.10: G3C9 variant with mutations L69V and E218D; SEQ ID NO: 62, 63 (protein)
chain: MAKLTALTLLGLGLALFDGQKSSFQTRFNVHREVTPVELPNCNLVKGVDNGSEDLEILPNGLAFISSGVKYPGIMSFDPDKSGKILLMDLNEEDPVVLELGITGNTLDISSFNPHGISTFTDEDNTVYLLVVNHPDSSSTVEVFKFQEEEKSLLHLKTIRHKLLPSVNDIVAVGPEHFYATNDHYFADPYLKSWEMHLGLAWSFVTYYSPNDVRVVADGFDFANGINISPDGKYVYIAELLAHKIHVYEKHANWTLTPLKSLDFDTLVDNISVDPVTGDLWVGCHPNGMRIFYYDPKNPPGSEVLRIQDILSEEPKVTVVYAENGTVLQGSTVAAVYKGKLLIGTVFHKALYCEL
modifications: In vitro evolved PON variant G3C9.10
B5: G3C9.49: G3C9 variant with mutations G19R, S193P, N287D and V346A; SEQ ID NO: 64, 65 (protein)
chain: B4 chain with G19R, V69L, S193P, D218E, N287D, V346A
modifications: In vitro evolved PON variant G3C9.49
B6: G3G3: third generation trx-rPON3 variant; SEQ ID NO: 47, 53 (protein)
chain: MAKLLLLTLLGASLAFVGERLLAFRDSFGAVQELEPVEPQNCVLIEGLENGSEDIDILPSGLAFISSGLKYPGMPNFAPDEPGKIFLIDMNEKNPRAQALEISGGFDKESFNPHGISTFIDKDHTVYLYVVNHPNMDSTVEVFKFEEQQHSLIHLKTIKHELLKSVNDIVVLGPEQFYATRDHYFTNSLLSFFEMILDLRWTSVLFYSPREVKVVAKGFSSANGITVSLDKKYVYVADVAAKNIHIMEKHDNWDLTELKVIHLDTLVDNLTVDPATGDILAGCHPNPMKLLNYNPEDPPGSEVLRIQNVLSEKPRVSTVYANNGSVLQGTSVASVYHGKILIGTIFHKTLYCDL
modifications: thioredoxin fusion; In vitro evolved PON variant G3G3
B7: G1A7: first generation trx-rPON3 variant; SEQ ID NO: 43, 49 (protein)
chain: MAKLLLLTLLGVGLSLVGERLLAFRNSFGAVQELEPVEPQNCHLIEGLENGSEDIDILPSGLAFISSGLKYPGMPAFAPDKPGRIFLMDLNEQNPEAQALEISGGLDQESLNPHGISTFIDKDSTAYLYVVNHPNMDSTVEIFKFEEQQRSLVHMKTIKHELLKSVNNIVVLGPEQFYATRDHYFTNSLLSFFEMILDPHWTSVVFYSPREVKVVAKGFSSANGITVSLDKKYVYVADATAKNVHVMEKHDNWDLTELKVIHLDTLVDNLTVDPATGDILAGCHPNPMKLLIYNPEDPPGSEVLRIQDSLSDKPRVSTLYANNGSVLQGTSVASVYHGKILIGTIFHKTLYCDL
modifications: thioredoxin fusion; In vitro evolved PON variant G1A7
B8: G1B11: first generation trx-rPON3 variant; SEQ ID NO: 44, 50 (protein)
chain: MAKLLLLTLLGACLALIGERLLNFRERVSTTREIKATEPQNCHLIEGLENGSEDIDILPSGLAFISSGLKYPGMPNFAPDEPGKIFLIDMNEQNPRAQALEISGGFDKELFNPHGISTFIDKDHTVYLYVVNHPNMDSTVEIFKFEEQQHSLIHLKTLKHELLKSVNDIVVLGPEQFYATRDHYFTNYVLALLKMFLDLRWTSVLFYSPKEVKVVAKGFSSANGITVSLDKKYVYVADATAKNVHVMEKHDNWDLTELKVIQLGTLVDNLTVDPATGDILAGCHPNPMKLLIYNPEDPPGSEVLRIQDVLSEKPRVSTVYANNGSVLQGSTVASVYQGKILIGTIFHKTLYCVL
modifications: thioredoxin fusion; In vitro evolved PON variant G1B11
B9: G2C2: second-generation trx-rPON3 variant; SEQ ID NO: 45, 51 (protein)
chain: MAKLLLLTLLGVGLSLVGERLLAFRNSFGAVQELEPVEPQNCVLIEGLENGSEDIDILPSGLAFISTGLKYPGMPNFAPDEPGKIFLMDLNEQNPRAQALEISGGFDKELFNPHGISTFIDKDNTVYLYVVNHPHMESTVEIFKFEEQQHSLIHLKTIKHELLKSVNDIVVLGPEQFYATRDHYFTNYVLARLEMILDLRWTYVLFYSPREVKVVAKGFSSANGITVSLDKKYVYVADATAKNVHVMEKHDNWDLTQLKVIQLGTLVDNLSVDPATGDILAGCHPNPMKLLNYNPEDPPGSEVLRIQNVLSEKPRVSTVYTNDGSVLQGTSVASVYQGKILIGTIFHKALHCDL
modifications: thioredoxin fusion; In vitro evolved PON variant G2C2
B10: RabPON3: wild-type rabbit PON3 expressed in E. coli fused to thioredoxin; SEQ ID NO: 30, 41 (protein, listed as Oryctolagus cuniculus)
chain: MAKLLLLTLLGASLAFVGERLLAFRNSFGAVQELEPVEPQNCVLIEGLENGSEDIDILPSGLAFISSGLKYPGMPNFAPDEPGKIFLIDMNEKNPRAQELEISNGFEKESFNPHGISTFIDKDHTVYLYVVNHPHMKSTVEIFKFEEQQRSLVHLKTIKHELLKSVNNIVVLGPEQFYATRDHYFTNYVLALLEMFLDLHWTSVLFYSPKEVKVVAKGFSSANGITVSLDKKYVYVADATAKNVHVMEKHDNWDLTELKVIHLDTLVDNLSVDPATGDILAGCHPNGMKLLNYNPEDPPGSEVLRIQNVLSEKPRVSTVYTNDGSVLQGSTVASVYQGKILIGTIFHKTLYCVL
modifications: thioredoxin fusion
B11: G3A5: third generation trx-rPON3 variant; SEQ ID NO: 46, 52 (protein)
chain: MGELLLLTLLGASLAFVGEMFLAFRERVNASREVEPVEPQNCVLIEGLENGSEDIDILPNGLAFISSGLKYPGMPNFAPDEPGKIFLMDLNEQNPRAQELEISNGFEKESFNPHGISTFIDKDHTVYLYVVNHPNMDSTVEIFKFEERQRSLVHLKTIKHELLKSVNDIVVLGPEQFYATRDRYFTNYVLALLEMILDPHWTSVVFYSPKEVKVVAQGFSSANGITVSLDKKYVYVADATAKNVHVMEKHDNWDLTPVKVIQLGTLVDNLSVDPATGDILAGCHPNPMKLLNYNPEDPPGSEVLRIRNVLSEKPRVSTVYTNDGSVLQGTSVASVYQGKILIGTIFHKTLYCDL
modifications: thioredoxin fusion; In vitro evolved PON variant G3A5
B12: G3H9: third generation trx-rPON3 variant; SEQ ID NO: 48, 54 (protein)
chain: MAKLLLLTLLGVGLSLVGERLLAFRNSFGAVQELESVEPQNCVLIEGLENGSEDIDILPSGLAFISSGLKYPGMPNFAPDEPGKIFLIDMNEKNPRAQELKISNGFEKESFNPHGISTFIDKDHTVYLYVVNHPNMDSTVEIFKFEEQQRSLVHLKTIKHELLKSVNDIVVLGPEQFYATRDHYFTNSLLSFFEMILDLRWTSVVFYSPKEVKVVAKGFSSANGITVSLDKKYVYVADATAKNVHVMEKHDNWDLTPVKVIQLGTLVDNLTVDPATGDILAGCHPNPMKLLNYNPEDPPGSEVLRIQNVLSEKPRVSTVYTNDGSVLQGTSVASVYQGKILIGTIFHKALYCDL
modifications: thioredoxin fusion; In vitro evolved PON variant G3H9

Format: biochemical
Settings: pH 8

Question: Which “kcat (PheAc)” value does the source give for B1 here?
Answer: 562 s⁻¹

Question: With B2 as the molecule, how does the “kcat (PheAc)” value read?
Answer: 965 s⁻¹

Question: With B3 as the molecule, how does the “kcat (PheAc)” value read?
Answer: 552 s⁻¹

Same assay, conditions: pH 8; read-out: KM(PheAc)

Question: With B1 as the molecule, how does the Km read?
Answer: 320 µM

Question: For B2, which Km is on record?
Answer: 430 µM

Question: Which Km does the source give for B3 here?
Answer: 540 µM

Same assay, conditions: read-out: Phenylacetate hydrolysis KM

Question: Which Km does the source give for B4 here?
Answer: 760 µM

Question: For B5, which Km is on record?
Answer: 300 µM

Format: biochemical
Settings: read-out: DEPCyC hydrolysis KM

Question: For B4, which Km is on record?
Answer: 50 µM

Question: With B5 as the molecule, how does the Km read?
Answer: 80 µM

Format: biochemical
Settings: read-out: 2NA hydrolysis KM

Question: Which Km does the source give for B6 here?
Answer: 650 µM

Question: For B7, which Km is on record?
Answer: 160 µM

Question: Which Km does the source give for B8 here?
Answer: 180 µM

Question: Which Km does the source give for B9 here?
Answer: 260 µM

Question: Which Km does the source give for B10 here?
Answer: 211 µM

Format: biochemical
Settings: pH 8
Remark: another data set of the same source

Question: With B1 as the molecule, how does the “kcat(Paraoxon)” value read?
Answer: 0.98 s⁻¹

Question: Which “kcat(Paraoxon)” value does the source give for B2 here?
Answer: 0.87 s⁻¹

Question: For B3, which “kcat(Paraoxon)” value is on record?
Answer: 0.54 s⁻¹

Same assay, conditions: pH 8; read-out: KM(Paraoxon)

Question: Which Km does the source give for B1 here?
Answer: 100 µM

Question: With B2 as the molecule, how does the Km read?
Answer: 89 µM

Question: With B3 as the molecule, how does the Km read?
Answer: 120 µM

Same assay, conditions: read-out: Paraxon hydrolysis KM

Question: With B7 as the molecule, how does the Km read?
Answer: 2500 µM

Question: For B11, which Km is on record?
Answer: 510 µM

Question: With B8 as the molecule, how does the Km read?
Answer: 1100 µM

Question: Which Km does the source give for B9 here?
Answer: 800 µM

Question: With B10 as the molecule, how does the Km read?
Answer: 1300 µM

Question: For B12, which Km is on record?
Answer: 800 µM
